Experimental data taken from US20250163119A1, “COMPOUNDS FOR THE TREATMENT OF DIABETES OR OBESITY” (Eli Lilly and Company, priority 2023, published 2025).
*1 amine or outer side, *2 acyl side, *3 side chain or, on linkers, in order; H or OH if unused. Where no end group is shown, it is not given here. Side-chain parts run from the residue outwards. [ ]: non-standard residue; d: D form. The star is where a group is joined. C20 diacid = O=C(O)CCCCCCCCCCCCCCCCCCC(=O)*; C18 diacid = O=C(O)CCCCCCCCCCCCCCCCC(=O)*; γGlu = O=C(O)[C@H](CCC(=O)[*:2])N[*:1]; εLys = N[C@@H](CCCCN[*:1])C(=O)[*:2]; pGlu = O=C1CC[C@@H](C(=O)O)N1; αMeL = CC(C)C[C@](C)(N)C(=O)O; PKE = not defined here; AEEA = NCCOCCOCC(=O)O; Aib = CC(C)(N)C(=O)O; Ahx = NCCCCCC(=O)O; βAla = NCCC(=O)O

T1: human corticotropin-releasing hormone receptor 1 (CRHR1) (human, UniProt P34998 24-415)
T1 sequence (looked up): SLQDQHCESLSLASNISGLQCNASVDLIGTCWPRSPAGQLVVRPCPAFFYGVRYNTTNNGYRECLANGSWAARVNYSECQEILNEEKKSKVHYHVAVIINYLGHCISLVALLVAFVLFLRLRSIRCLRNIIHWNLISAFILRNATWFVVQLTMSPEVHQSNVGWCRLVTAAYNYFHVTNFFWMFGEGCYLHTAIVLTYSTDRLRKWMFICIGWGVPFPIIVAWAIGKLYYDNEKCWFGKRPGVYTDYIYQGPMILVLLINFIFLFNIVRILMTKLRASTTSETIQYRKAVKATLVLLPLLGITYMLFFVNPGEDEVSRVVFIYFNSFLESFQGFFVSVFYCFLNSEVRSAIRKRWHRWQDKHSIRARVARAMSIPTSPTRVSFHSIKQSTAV


target: T1, human corticotropin-releasing hormone …; test: cell-based or functional assay

Row | Binder | hCRHR1 cAMP EC50 [µM]
1 | Ac-GSPSIVTS[αMeL]DVPT[Aib][αMeL]LQKILEQERAEKARQQAKEAAEILAQV-NH2 [polypeptide comprising SEQ ID NO:20] | > 10
2 | Ac-GSPSIVTS[αMeL]DVPT[Aib][αMeL]LQKILEQERAEKARQQAK([AEEA-PKE-γGlu-C20 diacid])EAAEILAQV-NH2 (reading uncertain) [polypeptide comprising SEQ ID NO:3] | > 10
3 | Ac-GSPSIVTS[αMeL]DVPT[Aib][αMeL]LQKILEQERAEKARQQAK([γGlu-Pro-Pro-Pro-εLys-C20 diacid])EAAEILAQV-NH2 [polypeptide comprising SEQ ID NO:14] | > 10
4 | Ac-GSPSIVTS[αMeL]DVPT[Aib][αMeL]LQKILEQERAEKARQQAK([γGlu-AEEA-AEEA-εLys-C20 diacid])EAAEILAQV-NH2 [polypeptide comprising SEQ ID NO:17] | > 10
5 | [γGlu]GSPSIVTS[αMeL]DVPT[Aib][αMeL]LEKILEQERAEKARQQATEAAEILAQV-NH2 (not fully specified (residue 1, N-terminus)) [polypeptide comprising SEQ ID NO:52] | 1.5
6 | Ac-IVTS[αMeL]D[dV]PTG[αMeL]LQIKLEQERAEKARQQAKENTEILAQV-NH2 (not fully specified (residue 29)) [polypeptide comprising SEQ ID NO:31] | > 10
7 | Ac-GSPSIVTS[αMeL]DVPT[Aib][αMeL]LQKLLEQERAEKARQQAK([γGlu-AEEA-Lys-C18 diacid])EAAEILAQV-NH2 (not fully specified) [polypeptide comprising SEQ ID NO:12] | > 10
8 | Ac-GSPSIVTS[αMeL]DVPT[Aib][αMeL]LQKILEQERAEKARQQAK([γGlu-Pro-Lys-Glu-Ahx-C20 diacid])EAAEILAQV-NH2 [polypeptide comprising SEQ ID NO:11] | > 10
9 | H-GSPSIVTS[αMeL]DVPT[Aib][αMeL]LQKILEQERAEKARQQATEAAEILAQV-NH2 [polypeptide comprising SEQ ID NO:27] | > 10
10 | Ac-GSPSIVTS[αMeL]DVPT[Aib][αMeL]LQKILEQERAEKARQQAK([AEEA-KEKEKE-γGlu-C20 diacid])EAAEILAQV-NH2 [polypeptide comprising SEQ ID NO:9] | > 10
11 | [γGlu]GSPSIVTS[αMeL]DVPT[Aib][αMeL]LQKILEQERAEKARQQATEAAEILAQV-NH2 (not fully specified (residue 1, N-terminus); also: Glu1 linked through its gamma-carboxyl to Gly2) [polypeptide comprising SEQ ID NO:28] | > 10
12 | [γGlu]GSPSIVTS[αMeL]DVPT[Aib][αMeL]LQKILEQERAEKARQQATEAAEILAQV-NH2 (not fully specified (residue 1, N-terminus); also: Glu1 linked through its gamma-carboxyl to Gly2) [polypeptide comprising SEQ ID NO:26] | > 10

The remaining lines, values ahead:

Row | hCRHR1 cAMP EC50 [µM] | Binder
13 | > 10 | Ac-GSPSIVTS[αMeL]DVPT[Aib][αMeL]LQKILEQERAEKARQQAK([γGlu-Pro-Pro-Pro-Pro-Pro-Pro-C20 diacid])EAAEILAQV-NH2 [polypeptide comprising SEQ ID NO:15]
14 | > 10 | Ac-GSPSIVTS[αMeL]DVPT[Aib][αMeL]LQKILEQERAEKARQQAK([γGlu-AEEA-εLys-C18 diacid])EAAEILAQV-NH2 [polypeptide comprising SEQ ID NO:21]
15 | 4.3 | Ac-IVTS[αMeL]D[dV]PI[Aib][αMeL]LQIKLEQERAEKARQQAKENTEILAQV-NH2 (not fully specified (residue 29)) [polypeptide comprising SEQ ID NO:51]
16 | > 10 | [pGlu]GSPSGIVTS[αMeL]DVPT[Aib][αMeL]LQKILEQERAEKARQQAK([γGlu-AEEA-εLys-C18 diacid])EAAEILAQV-NH2 [polypeptide comprising SEQ ID NO:24]
17 | > 10 | Ac-GSPSIVTS[αMeL]DVPT[Aib][αMeL]LQKILEQERAEKARQQAK([γGlu-AEEA-Ahx-C20 diacid])EAAEILAQV-NH2 [polypeptide comprising SEQ ID NO:5]
18 | > 10 | Ac-GSPSIVTS[αMeL]DVPT[Aib][αMeL]LQKILEQERAEKARQQAK([γGlu-εLys-γGlu-εLys-C20 diacid])EAAEILAQV-NH2 [polypeptide comprising SEQ ID NO:18]
19 | > 10 | Ac-GSPSIVTS[αMeL]DVPT[Aib][αMeL]LQKILEQERAEKARQQAK([γGlu-εLys-AEEA-εLys-C20 diacid])EAAEILAQV-NH2 [polypeptide comprising SEQ ID NO:19]
20 | > 10 | Ac-IVTS[αMeL]D[dV]PTG[αMeL]LQIKLEQERAEKARQQAKENTEILAQV-NH2 (not fully specified (residue 29)) [polypeptide comprising SEQ ID NO:30]
21 | > 10 | Ac-GSPSIVTS[αMeL]DVPT[Aib][αMeL]LQKILEQERAEKARQQAK([γGlu-Pro-Glu-Pro-Glu-Pro-Glu-C20 diacid])EAAEILAQV-NH2 [polypeptide comprising SEQ ID NO:16]
22 | > 10 | [pGlu]GSPSGIVTS[αMeL]DVPT[Aib][αMeL]LQKILEQERAEKARQQAKEAAEILAQV-NH2 [polypeptide comprising SEQ ID NO:23]
23 | > 10 | Ac-GSPSIVTS[αMeL]DVPT[Aib][αMeL]LQKILEQERAEKARQQAK([γGlu-GKEKEKE-C20 diacid])EAAEILAQV-NH2 [polypeptide comprising SEQ ID NO:6]
24 | > 10 | Ac-GSPSIVTS[αMeL]DVPT[Aib][αMeL]LQKILEQERAEKARQQAK([Gly-βAla-βAla-βAla-βAla-γGlu-C20 diacid])EAAEILAQV-NH2 [polypeptide comprising SEQ ID NO:8]
25 | > 10 | Ac-GSPSIVTS[αMeL]DVPT[Aib][αMeL]LQKILEQERAEKARQQAK([βAla-Ser-βAla-Ser-γGlu-C20 diacid])EAAEILAQV-NH2 [polypeptide comprising SEQ ID NO:10]
26 | > 10 | Ac-GSPSIVTS[αMeL]DVPT[Aib][αMeL]LQKILEQERAEKARQQAK([γGlu-Pro-Lys-Glu-εLys-C20 diacid])EAAEILAQV-NH2 [polypeptide comprising SEQ ID NO:13]
27 | > 10 | Ac-GSPSIVTS[αMeL]DVPT[Aib][αMeL]LQKILEQERAEKARQQAK([Gly-βAla-βAla-βAla-γGlu-C20 diacid])EAAEILAQV-NH2 [polypeptide comprising SEQ ID NO:7]
